Measurements taken from patent US20120121633A1 (published 2012).

Target: T1, ovalbumin (UniProt P01012 2-386)
T1 construct: also called control ovalbumin
T1 sequence: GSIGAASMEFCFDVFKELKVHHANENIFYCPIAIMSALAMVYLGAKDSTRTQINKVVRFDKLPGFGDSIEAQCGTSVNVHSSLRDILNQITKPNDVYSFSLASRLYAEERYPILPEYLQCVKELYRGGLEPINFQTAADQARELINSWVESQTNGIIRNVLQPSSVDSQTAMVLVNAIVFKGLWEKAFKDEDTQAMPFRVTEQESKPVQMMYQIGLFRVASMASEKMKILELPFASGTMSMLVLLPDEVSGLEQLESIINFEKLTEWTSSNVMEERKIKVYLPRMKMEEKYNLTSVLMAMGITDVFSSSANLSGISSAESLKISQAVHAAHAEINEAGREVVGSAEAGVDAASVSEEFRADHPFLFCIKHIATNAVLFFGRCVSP
Experiment: competition ELISA: no inhibition of MAb 2G9 binding to immobilized BSA-E-416-433

B1: IgM clone 2G9 (antibody, V domains shown)
VH: QVQLKQSGPGLVQPSQSLSITCTVSGFSLTSYGVHWVRQSPGKGLEWLGVIWSGGSTDYNAAFISRLSISKDNSKSQVFFKMNSLQANDTAIYYCARNKDYGSSYDYYAMDYWGQGTSVTVSS
VL: DIQMTQTTSSLSASLGDRVTISCRASQDISNYLNWYQQKPDGTVKLLIYYTSRLHSGVPSRFSGSGSGTDYSLTISNLEQEDIATYFCQQGNTLPTFGGGTKLEIKR
notes: also called MAb 2G9; MAb IgM 2G9
  binding result: no binding
